Earlier results in article PMC3061256.

Biological target: HPr (Escherichia coli) (UniProt P0AA04)

For “EIN (enzyme I N-terminal domain) N-terminal domain (from UniProt P08839)”, which Kd is on record?
Its Kd is 10 µM.
